Experimental data as given in publication PMC7507306, “Highly active rubiscos discovered by systematic interrogation of natural sequence diversity” (The EMBO Journal, 2020).

Columns and labels:
Test in all cases: SEC; analytical gel filtration of the purified rubisco; oligomer state read from the elution; conditions not shown (Appendix)
[1] = target: Acidithiobacillus ferrooxidans rubisco (form-II) (Acidithiobacillus ferrooxidans)
[2] = target: Gallionella sp. rubisco (form-II) (Gallionella sp.)
[3] = target: Sulfurivirga caldicuralii rubisco (form-II) (Sulfurivirga caldicuralii)
[4] = target: Zetaproteobacteria_53_45 rubisco (form-II) (Zetaproteobacteria_53_45)
[5] = target: Zetaproteobacterium rubisco (form-II) (Zetaproteobacterium)
[6] = target: the molecule itself

Acidithiobacillus ferrooxidans rubisco (form-II) (enzyme)
stoichiometry N [1]: 6

Gallionella sp. rubisco (form-II) (enzyme)
stoichiometry N [2]: 2

Sulfurivirga caldicuralii rubisco (form-II) (enzyme)
stoichiometry N [3]: 4

Zetaproteobacteria_53_45 rubisco (form-II) (enzyme)
stoichiometry N [4]: 2

Zetaproteobacterium rubisco (form-II) (enzyme)
stoichiometry N [5]: 2

B1: Hydrogenovibrio marinus rubisco (form-II) (enzyme, UniProt Q59462 1-463, looked up)
chain: MDQSNRYADLTLTEEKLVADGNHLLVAYRLKPAAGYGFLEVAAHVAAESSTGTNVEVSTTDDFTRGVDALVYEIDEAAFGDKGGLMKIAYPVDLFDPNLIDGHYNVSHMWSLILGNNQGMGDHEGLRMLDFLVPEKMVKRFDGPATDISDLWKVLGRPEVDGGYIAGTIIKPKLGLRPEPFAKACYDFWLGGDFIKNDEPQANQNFCPMEVVIPKVAEAMDRAQQATGQAKLFSANVTADFHEEMIKRGEYVLGEFAKYGNEKHVAFLVDGFVTGPAGVTTSRRAFPDTYLHFHRAGHGAVTSYKSPMGMDPLCYMKLARLMGASGIHTGTMGYGKMEGHNDERVLAYMLERDECQGPYFYQKWYGMKPTTPIISGGMDALRLPGFFENLGHGNVINTCGGGSFGHIDSPAAGGISLGQAYACWKTGAEPIEAPREFARAFESFPGDADKIFPGWREKLGVHK
notes: form-II rubisco large subunit from Hydrogenovibrio marinus; scarless tag cleavage gives the native rubisco; source: E. coli BL21(DE3), purified (nickel magnetic beads, eluted by on-bead cleavage of the SUMO tag with bdSENP1); not shown: 14xHis, N-terminal, cleaved; bdSUMO, N-terminal, cleaved
stoichiometry N [6]: 2
